Patent US20240368238A1 (DRACOTERPIN BIOMEDICINE, published 2024)

T1: IL-2Rβ/γ-Fc heterodimer (IL-2Rβ-Fc-hole + IL-2Rγ-Fc-knob) (UniProt P14784 27-240; P31785 23-262)
T1 construct: Both chains transfected together into HEK293; purified with Protein A and Superdex 200; used as the analyte in the BLI; also called IL-2Rβ/γ heterodimers; not shown: Fc hole; Fc knob
T1 sequence (looked up) 1: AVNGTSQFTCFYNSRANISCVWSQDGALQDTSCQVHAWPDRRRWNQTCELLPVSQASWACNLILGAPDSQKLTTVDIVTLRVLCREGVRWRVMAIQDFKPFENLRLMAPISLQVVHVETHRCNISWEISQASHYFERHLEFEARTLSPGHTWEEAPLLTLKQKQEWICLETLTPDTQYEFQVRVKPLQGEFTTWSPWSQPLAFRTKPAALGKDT
T1 sequence (looked up) 2: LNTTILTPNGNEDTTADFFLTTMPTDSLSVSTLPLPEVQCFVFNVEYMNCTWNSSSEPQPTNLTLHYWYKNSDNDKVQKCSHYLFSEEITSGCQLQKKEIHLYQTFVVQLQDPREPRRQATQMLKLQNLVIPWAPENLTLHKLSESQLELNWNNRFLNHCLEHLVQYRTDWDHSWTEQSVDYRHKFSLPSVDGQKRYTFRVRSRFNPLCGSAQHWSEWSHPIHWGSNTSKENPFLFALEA

T2: IL2-Rα-his (UniProt P01589 22-240, limits assumed)
T2 construct: used as the analyte in the BLI; also called IL-2 receptor α; CD25; not shown: his tag
T2 sequence (looked up): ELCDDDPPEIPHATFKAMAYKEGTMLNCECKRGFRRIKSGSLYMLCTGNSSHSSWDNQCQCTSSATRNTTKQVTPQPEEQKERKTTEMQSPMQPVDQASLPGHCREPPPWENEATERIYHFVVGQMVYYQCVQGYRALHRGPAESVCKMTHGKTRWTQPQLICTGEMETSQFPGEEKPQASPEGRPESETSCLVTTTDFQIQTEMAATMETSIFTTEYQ

T3: IL-2Rβ/γ receptor subunit complex on CTLL-2 cells (UniProt P16297 27-539; P34902 23-369)
T3 sequence (looked up) 1: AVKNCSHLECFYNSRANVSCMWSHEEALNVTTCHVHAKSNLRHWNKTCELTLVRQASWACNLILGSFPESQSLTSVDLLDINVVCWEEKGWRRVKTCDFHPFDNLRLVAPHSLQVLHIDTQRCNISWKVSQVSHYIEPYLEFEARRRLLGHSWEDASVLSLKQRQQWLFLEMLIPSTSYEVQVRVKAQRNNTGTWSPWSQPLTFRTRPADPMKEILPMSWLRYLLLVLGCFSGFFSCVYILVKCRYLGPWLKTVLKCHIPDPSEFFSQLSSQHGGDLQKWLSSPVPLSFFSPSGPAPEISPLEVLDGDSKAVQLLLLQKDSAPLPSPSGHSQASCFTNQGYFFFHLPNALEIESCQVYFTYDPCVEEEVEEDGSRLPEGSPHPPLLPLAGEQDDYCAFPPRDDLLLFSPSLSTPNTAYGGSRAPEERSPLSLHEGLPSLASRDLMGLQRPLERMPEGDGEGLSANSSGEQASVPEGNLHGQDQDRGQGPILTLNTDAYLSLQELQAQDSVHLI
T3 sequence (looked up) 2: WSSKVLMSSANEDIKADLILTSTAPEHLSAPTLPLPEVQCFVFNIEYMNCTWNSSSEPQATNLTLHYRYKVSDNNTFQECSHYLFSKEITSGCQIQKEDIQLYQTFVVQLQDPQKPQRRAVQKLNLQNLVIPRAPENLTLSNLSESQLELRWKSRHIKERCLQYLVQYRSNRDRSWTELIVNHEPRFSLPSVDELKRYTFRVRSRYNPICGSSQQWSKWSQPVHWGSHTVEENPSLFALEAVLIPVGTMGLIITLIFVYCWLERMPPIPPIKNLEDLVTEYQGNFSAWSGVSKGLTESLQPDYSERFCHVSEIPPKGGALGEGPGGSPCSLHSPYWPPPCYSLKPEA

B1: IL-2-4 (43-45 + 125) (ligand)
chain: APTSSSTKKTQLQLEHLLLDLQMILNGINNYKNPKLTRMLTFGMPKKATELKHLQCLEEELKPLEEVLNLAQSKNFHLRPRDLISNINVIVLELKGSETTFMCEYADETATIVEFLNRWITFAQSIISTLT
notes: Human IL-2 variant; HEK293 expression, purified by the HPC4 tag; not shown: HPC4 tag at the C-terminus
B2: IL-2-7 (31-32 + 43-45 + 125) (ligand)
chain: APTSSSTKKTQLQLEHLLLDLQMILNGINNGGNPKLTRMLTFGMPKKATELKHLQCLEEELKPLEEVLNLAQSKNFHLRPRDLISNINVIVLELKGSETTFMCEYADETATIVEFLNRWITFAQSIISTLT
notes: as for B1
B3: IL-2-6 (35-41 + 43-45 + 125) (ligand)
chain: APTSSSTKKTQLQLEHLLLDLQMILNGINNYKNPMHGLDGFGMPKKATELKHLQCLEEELKPLEEVLNLAQSKNFHLRPRDLISNINVIVLELKGSETTFMCEYADETATIVEFLNRWITFAQSIISTLT
notes: as for B1
B4: IL-2-1 (31-32 + 35-41 + 43-45 + 125) (ligand)
chain: APTSSSTKKTQLQLEHLLLDLQMILNGINNGGNPMHGLDGFGMPKKATELKHLQCLEEELKPLEEVLNLAQSKNFHLRPRDLISNINVIVLELKGSETTFMCEYADETATIVEFLNRWITFAQSIISTLT
notes: as for B1
B5: IL-2-8 (35-43 + 125) (ligand)
chain: APTSSSTKKTQLQLEHLLLDLQMILNGINNYKNPMGGLGGFYMPKKATELKHLQCLEEELKPLEEVLNLAQSKNFHLRPRDLISNINVIVLELKGSETTFMCEYADETATIVEFLNRWITFAQSIISTLT
notes: as for B1
B6: IL-2-9 (35-41 + 43-45 + 125) (ligand)
chain: APTSSSTKKTQLQLEHLLLDLQMILNGINNYKNPGGGGGGFGMPKKATELKHLQCLEEELKPLEEVLNLAQSKNFHLRPRDLISNINVIVLELKGSETTFMCEYADETATIVEFLNRWITFAQSIISTLT
notes: as for B1
B7: IL-2-2 (35-41 + 125) (ligand)
chain: APTSSSTKKTQLQLEHLLLDLQMILNGINNYKNPMHGLDGFKFYMPKKATELKHLQCLEEELKPLEEVLNLAQSKNFHLRPRDLISNINVIVLELKGSETTFMCEYADETATIVEFLNRWITFAQSIISTLT
notes: as for B1
B8: IL-2-5 (31-32 + 35-41 + 125) (ligand)
chain: APTSSSTKKTQLQLEHLLLDLQMILNGINNGGNPMHGLDGFKFYMPKKATELKHLQCLEEELKPLEEVLNLAQSKNFHLRPRDLISNINVIVLELKGSETTFMCEYADETATIVEFLNRWITFAQSIISTLT
notes: as for B1
B9: IL-2-3 (31-32 + 125) (ligand)
chain: APTSSSTKKTQLQLEHLLLDLQMILNGINNGGNPKLTRMLTFKFYMPKKATELKHLQCLEEELKPLEEVLNLAQSKNFHLRPRDLISNINVIVLELKGSETTFMCEYADETATIVEFLNRWITFAQSIISTLT
notes: as for B1

Columns and labels:
[1] = biological target: T1, IL-2Rβ/γ-Fc heterodimer (IL-2Rβ-Fc-hole …); assay: BLI (Octet RED96e), AR2G sensors, IL-2Rβ/γ-Fc heterodimer as analyte, 1:1 global fit
Protocol: (§1) Experimental data were processed using Data Analysis software 9.0. […] The method of global fitting was applied, i.e., the 6 concentrations were analyzed as a group.

IL2-Rα-his [2] = biological target: T2, IL2-Rα-his; assay: BLI (Octet RED96e), AR2G sensors, IL-2Rα-his as analyte, 1:1 global fit
Protocol: (§2) 2. The experiment was performed with reference to the experimental design below. The whole experiment was completed under the conditions of 30° C., 1000 rpm, 220 μl/well. The proteins used in the experiment were IL2-Rα-his and IL-2 variants or derivatives thereof obtained by transient expression in HEK293 and affinity purification.
as §1

IL2-Rα-his [3] = biological target: T2, IL2-Rα-his; assay: Octet BLI per Example 2, IL-2Rα-his as analyte at the concentration on the x axis; y axis on the sheet reads OD490
Protocol: as §2, §1

[4] = biological target: T1, IL-2Rβ/γ-Fc heterodimer (IL-2Rβ-Fc-hole …); assay: Octet BLI per Example 3, IL-2Rβ/γ-Fc heterodimer as analyte at the concentration on the x axis; y axis on the sheet reads OD490
Protocol: as §1

[5] = biological target: T3, IL-2Rβ/γ receptor subunit complex on …; assay: cell-based or functional assay

Binder	Kd [1] [nM]	Kd (IL2-Rα-his [2]) [nM]	EC50 (read off the curve) (IL2-Rα-his [3]) [nM]	EC50 (read off the curve) [4] [nM]	Relative activity (CTLL-2 cell proliferation, CCK-8) [5] [%]	binding result (IL2-Rα-his [3])
B1	4.11	0.799	~60	~100	100	
B2	6.48	3.25	~70	~100	58	
B3	19.6			~100	13	no binding (tested: 500 nM)
B4	17.9			~100	13	no binding (tested: 500 nM)
B5	21.3			~100	8	no binding (tested: 1000 nM)
B6	27.2			~100	8	no binding (tested: 500 nM)
B7	4.87	0.789	~60	~100	64	
B8	5.24	0.904	~60	~100	90	
B9	3.74	0.656	~60	~100	100	
